In US20240400686A1:

Biological target: Human CD3εδ (human) (UniProt P07766)
Assay: SPR, sensorgrams at 10-300 nM; set-up not given

B1: humanized 26H8 Fab (Fab, V domains shown)
VH: QVQLQESGPGLVKPSETLSLTCTASGYTFTNYYIHWVRQSPGKGLEWIGWIYCGDGSTKFNEQFKDRTTLSADHSKTQASLKLSSVTAADTAIYFCARDWAGSYFFDFWGQGTMVTVSS
VL: DIQMTQSPSSLSASVGDRVTITCKSSQSLLNSRTRKNYLAWYQQKPGKAPKLLIYWASTRESGVPSRFSGSGSGTDFTFTISSLQPEDIATYYCKQSYILRTFGGGTKVEIKR
**Q.** Which Kd does the source give for B1 here?
**A.** 49 nM

**Q.** And the koff?
**A.** 0.015 s⁻¹

**Q.** And the kon?
**A.** 300000 M⁻¹ s⁻¹
